# T1: Prim–PolC (Msm Prim–PolC) (Mycolicibacterium smegmatis, UniProt A0R5T1)
# T1 construct: gene ligD; residues 4-336 printed for the crystal structure (may be the ordered part of the full-length protein); N-terminal His tag, pET28, made in E. coli Origami B pLysS
# T1 sequence (A0R5T1 4-336): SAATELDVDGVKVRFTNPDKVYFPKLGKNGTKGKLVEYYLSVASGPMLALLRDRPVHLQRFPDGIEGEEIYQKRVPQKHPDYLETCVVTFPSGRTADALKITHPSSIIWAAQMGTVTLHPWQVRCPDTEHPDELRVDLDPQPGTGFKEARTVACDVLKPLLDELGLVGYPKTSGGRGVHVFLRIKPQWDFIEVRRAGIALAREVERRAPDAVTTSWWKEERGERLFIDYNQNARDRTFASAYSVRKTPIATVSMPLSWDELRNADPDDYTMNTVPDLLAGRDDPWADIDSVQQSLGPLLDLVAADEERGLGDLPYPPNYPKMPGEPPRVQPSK
# T2: Prim-PolC WT (UniProt A0R5T1 1-350)
# T2 sequence: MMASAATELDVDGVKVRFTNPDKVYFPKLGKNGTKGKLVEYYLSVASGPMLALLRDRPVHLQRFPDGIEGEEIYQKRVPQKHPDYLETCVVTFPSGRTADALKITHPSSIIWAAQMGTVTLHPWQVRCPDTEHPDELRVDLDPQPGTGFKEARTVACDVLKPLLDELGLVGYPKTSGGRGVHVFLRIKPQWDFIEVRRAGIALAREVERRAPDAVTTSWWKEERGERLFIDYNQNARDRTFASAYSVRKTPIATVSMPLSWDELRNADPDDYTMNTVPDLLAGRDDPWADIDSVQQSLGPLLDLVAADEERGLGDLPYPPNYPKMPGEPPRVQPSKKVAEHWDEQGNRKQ
# T3: Prim-PolC N321A (UniProt A0R5T1 1-350, N321A)
# T3 sequence: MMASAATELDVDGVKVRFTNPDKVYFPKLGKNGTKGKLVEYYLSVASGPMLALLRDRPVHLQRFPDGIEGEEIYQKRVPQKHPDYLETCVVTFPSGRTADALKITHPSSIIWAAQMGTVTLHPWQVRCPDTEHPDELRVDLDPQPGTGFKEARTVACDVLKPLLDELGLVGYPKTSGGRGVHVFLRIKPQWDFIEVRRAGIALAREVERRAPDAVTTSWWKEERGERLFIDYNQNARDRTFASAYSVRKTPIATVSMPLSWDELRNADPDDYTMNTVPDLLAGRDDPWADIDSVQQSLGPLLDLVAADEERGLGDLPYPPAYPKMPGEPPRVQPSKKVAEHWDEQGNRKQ
# T4: Prim-PolC N321G (UniProt A0R5T1 1-350, N321G)
# T4 sequence: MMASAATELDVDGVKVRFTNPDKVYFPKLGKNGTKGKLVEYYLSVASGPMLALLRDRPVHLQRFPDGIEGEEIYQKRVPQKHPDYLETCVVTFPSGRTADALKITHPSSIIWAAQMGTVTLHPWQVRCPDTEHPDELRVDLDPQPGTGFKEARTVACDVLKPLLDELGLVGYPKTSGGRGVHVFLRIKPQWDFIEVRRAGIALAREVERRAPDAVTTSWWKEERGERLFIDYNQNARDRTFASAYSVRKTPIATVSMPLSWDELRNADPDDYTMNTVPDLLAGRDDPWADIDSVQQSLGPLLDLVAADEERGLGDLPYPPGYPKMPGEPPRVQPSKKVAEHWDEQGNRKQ
# T5: Prim-PolC (crystallisation construct) (UniProt A0R5T1 4-336)
# T5 sequence: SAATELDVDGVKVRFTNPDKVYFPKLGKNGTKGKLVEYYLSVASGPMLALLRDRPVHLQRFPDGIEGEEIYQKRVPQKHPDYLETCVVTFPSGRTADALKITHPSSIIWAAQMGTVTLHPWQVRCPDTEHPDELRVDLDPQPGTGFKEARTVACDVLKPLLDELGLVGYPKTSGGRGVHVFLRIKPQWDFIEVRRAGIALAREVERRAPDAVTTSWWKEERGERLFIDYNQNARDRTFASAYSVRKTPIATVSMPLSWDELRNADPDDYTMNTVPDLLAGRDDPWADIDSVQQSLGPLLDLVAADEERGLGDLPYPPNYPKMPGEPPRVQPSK
# Columns and labels:
# [1] = biological target: T1, Prim–PolC (Msm Prim–PolC); experiment: X-ray crystal structure, […] Å; assay type: binding; settings: pre-catalytic ternary complex with 2-nt gapped DNA and two Mn2+; active site; pH 6.5
# Prim-PolC WT = biological target: T2, Prim-PolC WT; experiment: 2-aminopurine fluorescence (base flipping); 5 mM Ca2+, 250 uM ATP; Crystals: 0.05 M Na cacodylate pH 6.5, 2 M ammonium sulfate, 0.01 M MnCl2, 285 K, 300 uM protein:600 uM DNA; 2-AP assay: 0-1 uM protein, 1 uM DNA, 5 mM Ca2+, 250 uM ATP (buffer, pH and temperature not in material); settings: protein: recombinant, tags: N-terminal His, label: 2-AP, gapped duplex
# Prim-PolC N321A = biological target: T3, Prim-PolC N321A; experiment: 2-aminopurine fluorescence (base flipping); 5 mM Ca2+, 250 uM ATP; similar to WT; Crystals: 0.05 M Na cacodylate pH 6.5, 2 M ammonium sulfate, 0.01 M MnCl2, 285 K, 300 uM protein:600 uM DNA; 2-AP assay: 0-1 uM protein, 1 uM DNA, 5 mM Ca2+, 250 uM ATP (buffer, pH and temperature not in material); settings: protein: recombinant; tags: N-terminal His; label: 2-AP; gapped duplex, 1-nt gap
# Prim-PolC N321G = biological target: T4, Prim-PolC N321G; experiment: as above; settings: protein: recombinant, tags: N-terminal His, label: 2-AP, gapped duplex
# [2] = biological target: T5, Prim-PolC (crystallisation construct); experiment: X-ray crystallography (2.0 A); Mn2+; PPi in one complex, 3'-dUTP in the other; Crystals: 0.05 M Na cacodylate pH 6.5, 2 M ammonium sulfate, 0.01 M MnCl2, 285 K, 300 uM protein:600 uM DNA; 2-AP assay: 0-1 uM protein, 1 uM DNA, 5 mM Ca2+, 250 uM ATP (buffer, pH and temperature not in material); settings: protein: recombinant; tags: N-terminal His; gapped duplex, 1-nt gap, blunt outer ends
# [3] = biological target: T5, Prim-PolC (crystallisation construct); experiment: X-ray crystallography (2.2 A); Mn2+, UpNHpp; Crystals: 0.05 M Na cacodylate pH 6.5, 2 M ammonium sulfate, 0.01 M MnCl2, 285 K, 300 uM protein:600 uM DNA; 2-AP assay: 0-1 uM protein, 1 uM DNA, 5 mM Ca2+, 250 uM ATP (buffer, pH and temperature not in material); settings: protein: recombinant; tags: N-terminal His; gapped duplex, 2-nt gap (AA), blunt outer ends
molecule,measurement,setting,value
O=c1ccn([C@@H]2O[C@H](COP(=O)(O)NP(=O)(O)OP(=O)(O)O)[C@@H](O)[C@H]2O)c(=O)[nH]1 [UpNHpp],"X-ray crystal structure, 2.21 Å",[1],a non-hydrolysable incoming UTP ribonucleotide (UpNHpp) and manganese ions were also included
"2-AP 1-nt gap substrate (dsDNA, 2-aminopurine at position 15 of primer oKZ282 (written A); 5'-phosphate on downstream strand) DNA 1: AGTCGCATAGTGTAGTCATGTCGATTCGCCATAG DNA 2: CTATGAGCGAATCGAC DNA 3: CGACTACACTATGCGACT",binding result,Prim-PolC WT; 1-nt gap,binds
same,binding result,Prim-PolC N321A,binds
same,binding result,Prim-PolC N321G; 1-nt gap,binds
"2-AP 3-nt gap substrate (dsDNA, 2-aminopurine at position 15 of primer oKZ282 (written A); 5'-phosphate on downstream strand) DNA 1: AGTCGCATAGTGTAGTCATGTCGATTCGCCATAG DNA 2: CTATGAGCGAATCGAC DNA 3: ACTACACTATGCGACT",binding result,Prim-PolC N321G; 3-nt gap,binds
"2-AP 2-nt gap substrate (dsDNA, 2-aminopurine at position 15 of primer oKZ282 (written A); 5'-phosphate on downstream strand) DNA 1: AGTCGCATAGTGTAGTCATGTCGATTCGCCATAG DNA 2: CTATGAGCGAATCGAC DNA 3: GACTACACTATGCGACT",binding result,Prim-PolC WT; 2-nt gap,binds
"1-nt gapped post-catalytic DNA (mixed, 5'-phosphate on D strand; primer 3' terminus is 3'-deoxyuridine (ribo, incorporated in situ)) DNA 1: CGCTCGCAACGCACG DNA 2: CGTGCGU ?: GCGAGCG",binding result,[2],binds
"2-nt gapped DNA T/P/D (dsDNA, 5'-phosphate on D strand) DNA 1: CGCTCGCAACGCACG DNA 2: CGTGCG DNA 3: GCGAGCG",binding result,[3],binds

# From article PMC7442782, “Molecular basis for DNA repair synthesis on short gaps by mycobacterial Primase-Polymerase C” (Nature Communications, 2020)
